Measured values reported in US20050003347A1, “Domain-exchanged binding molecules, methods of use and methods of production” (priority 2003, published 2005).

Assays:
[1] = target: HIV-1 gp120 JR-FL (HIV-1 (JR-FL)); test: ELISA, crude Fab on gp120JR-FL; apparent affinity wt/mutant x100%
[2] = test system: Mab 2G12 binding to gp120JR-FL; test: Competition ELISA: inhibition of 2G12 binding to gp120JR-FL by carbohydrates; parameters: species or system HIV-1; conditions: 2G12 1 μg/ml
Description: Competition enzyme-linked immunosorbent assays (ELISAs) were performed to determine the relative inhibition constants of different carbohydrates on 2G12. GP120JR-FL was first captured onto microtiter plate wells (flat bottom, Costar type 3690; Corning Inc.). Subsequently serial dilutions of Man9GlcNAc2, Manα1-2Man, mannose, and other mono- and disaccharides were added to the wells in the presence of 2G12 (1 μg/ml). Subsequent blocking, washing, and detection steps were performed as described in (13).

## Fab 2G12 mutant H I19A
[1]
  % Affinity Relative to Wild Type: 0.5%

## Fab 2G12 mutant H Y56A
[1]
  % Affinity Relative to Wild Type: 2%

## Fab 2G12 mutant H L74A
[1]
  % Affinity Relative to Wild Type: 130%

## Fab 2G12 mutant H R39Q
[1]
  % Affinity Relative to Wild Type: 170%

## Fab 2G12 mutant H H32A
[1]
  % Affinity Relative to Wild Type: 0.4%

## Fab 2G12 mutant L S28A
[1]
  % Affinity Relative to Wild Type: 0.1%

## Fab 2G12 mutant H D100dA
[1]
  % Affinity Relative to Wild Type: 120%

## Fab 2G12 mutant H P113S
[1]
  % Affinity Relative to Wild Type: 0.1%

## Fab 2G12 mutant H T55A
[1]
  % Affinity Relative to Wild Type: 0.1%

## Fab 2G12 mutant H R83A
[1]
  % Affinity Relative to Wild Type: 59%

## Fab 2G12 mutant H V84A
[1]
  % Affinity Relative to Wild Type: 0.1%

## Fab 2G12 mutant H P113A
[1]
  % Affinity Relative to Wild Type: 0.1%

## Fab 2G12 mutant H S54A
[1]
  % Affinity Relative to Wild Type: 0.1%

## Fab 2G12 mutant H E76A
[1]
  % Affinity Relative to Wild Type: 103%

## Fab 2G12 mutant H E75A
[1]
  % Affinity Relative to Wild Type: 1.1%

## Fab 2G12 mutant H D100bA
[1]
  % Affinity Relative to Wild Type: 52%

## Fab 2G12 mutant L G93A
[1]
  % Affinity Relative to Wild Type: 120%

## Fab 2G12 mutant H K82bA
[1]
  % Affinity Relative to Wild Type: 51%

## Fab 2G12 mutant H R39A
[1]
  % Affinity Relative to Wild Type: 130%

## CC(=O)N[C@H]1[C@H](O[C@H]2[C@H](O)[C@@H](NC(C)=O)C(O)O[C@@H]2CO)O[C@H](CO)[C@@H](O[C@@H]2O[C@H](CO[C@H]3O[C@H](CO[C@H]4O[C@H](CO)[C@@H](O)[C@H](O)[C@@H]4O[C@H]4O[C@H](CO)[C@@H](O)[C@H](O)[C@@H]4O)[C@@H](O)[C@H](O[C@H]4O[C@H](CO)[C@@H](O)[C@H](O)[C@@H]4O[C@H]4O[C@H](CO)[C@@H](O)[C@H](O)[C@@H]4O)[C@@H]3O)[C@@H](O)[C@H](O[C@H]3O[C@H](CO)[C@@H](O)[C@H](O)[C@@H]3O[C@H]3O[C@H](CO)[C@@H](O)[C@H](O)[C@@H]3O[C@H]3O[C@H](CO)[C@@H](O)[C@H](O)[C@@H]3O)[C@@H]2O)[C@@H]1O (stereo partly drawn) [Man9GlcNAc2]
[2]; relative to Manα1-2Man
  inhibition of Mab 2G12 binding to gp120JR-FL compared to the disaccharide Manα1-2Man: over 50 fold
[2]; relative to mannose
  inhibition of Mab 2G12 binding to gp120JR-FL compared to mannose (relative IC50): over 200 fold

## Fab 2G12 mutant L W32A
[1]
  % Affinity Relative to Wild Type: 50%

## Fab 2G12 mutant H G96A
[1]
  % Affinity Relative to Wild Type: 20%

## Fab 2G12 mutant H N100cA
[1]
  % Affinity Relative to Wild Type: 0.1%

## O=C(CO)[C@@H](O)[C@H](O)[C@H](O)CO [Fructose]
[2]
  inhibition of 2G12 binding to gp120 (in words): better inhibitor than mannose

## Fab 2G12 mutant H R57A
[1]
  % Affinity Relative to Wild Type: 0.1%

## Fab 2G12 mutant H S100aA
[1]
  % Affinity Relative to Wild Type: 0.1%

## Fab 2G12 mutant H F77A
[1]
  % Affinity Relative to Wild Type: 0.1%

## Fab 2G12 mutant H Y79A
[1]
  % Affinity Relative to Wild Type: 0.1%

## Fab 2G12 mutant H K95A
[1]
  % Affinity Relative to Wild Type: 170%

## Fab 2G12 mutant H T33A
[1]
  % Affinity Relative to Wild Type: 2%

## Fab 2G12 mutant H L100A
[1]
  % Affinity Relative to Wild Type: 0.1%

## Fab 2G12 mutant H T52aA
[1]
  % Affinity Relative to Wild Type: 190%
